Consider one molecule from paper doi:10.1101/2020.07.22.215871.

This data set addresses T1, Tb927.11.16120-His (r16120) (Trypanosoma brucei, UniProt Q381H4 1-610).
T1 sequence: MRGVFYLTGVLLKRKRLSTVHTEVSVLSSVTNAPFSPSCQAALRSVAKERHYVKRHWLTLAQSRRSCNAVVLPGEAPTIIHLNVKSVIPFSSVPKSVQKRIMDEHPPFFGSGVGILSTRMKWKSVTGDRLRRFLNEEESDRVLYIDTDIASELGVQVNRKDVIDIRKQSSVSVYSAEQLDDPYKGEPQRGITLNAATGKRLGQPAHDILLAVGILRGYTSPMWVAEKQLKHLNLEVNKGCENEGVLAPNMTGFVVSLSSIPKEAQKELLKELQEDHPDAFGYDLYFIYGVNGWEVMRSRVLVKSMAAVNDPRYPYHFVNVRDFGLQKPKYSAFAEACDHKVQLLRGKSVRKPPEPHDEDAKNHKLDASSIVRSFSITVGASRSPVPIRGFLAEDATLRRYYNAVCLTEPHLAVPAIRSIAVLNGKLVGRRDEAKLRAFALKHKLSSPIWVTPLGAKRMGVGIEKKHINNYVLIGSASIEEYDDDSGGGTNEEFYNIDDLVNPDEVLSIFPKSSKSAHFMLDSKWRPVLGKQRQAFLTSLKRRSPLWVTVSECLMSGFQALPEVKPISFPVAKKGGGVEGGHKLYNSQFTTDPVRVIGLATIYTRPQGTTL
Kind of data set: EMSA. (In general: A gel shift assay detects complexes by their altered migration in electrophoresis.)

B1: 73 bp conserved minicircle sequence (dsDNA)
DNA 1: GAAAAAACGGAAAATCTTATGGGCGTGCAAAAATACACATACACAAATCCCGTGCTTATTTTAGGCCATTTTT
DNA 2: AAAAATGGCCTAAAATAAGCACGGGATTTGTGTATGTGTATTTTTGCACGCCCATAAGATTTTCCGTTTTTTC
In the case of B1, the binding result is recorded as “binds”.
